This is an account of results in US20150344570A1 (published 2015).

The labels stand for the following.
B1: GpH7-B3 variant I336_14T/GpL16-k0 (antibody, human IgG1, kappa)
heavy: not shown
light: DIVMTQSPLSLPVTPGEPASISCQASESLVHSNRNTYLHWYLQKPGQSPQLLIYKVSNRFSGVPDRFSGSGSGTDFTLKISRVEAEDVGVYYCSQNTHVPPTFGQGTKVEIERTVAAPSVFIFPPSDEQLKSGTASVVCLLNNFYPREAKVQWKVDNALQSGNSQESVTEQDSKDSTYSLSSTLTLSKADYEKHKVYACEVTHQGLSSPVTKSFNRGEC
notes: also called Ho Ab I336_14T
B2: GpH7-B3 variant K334_03V/GpL16-k0 (antibody, human IgG1, kappa)
heavy: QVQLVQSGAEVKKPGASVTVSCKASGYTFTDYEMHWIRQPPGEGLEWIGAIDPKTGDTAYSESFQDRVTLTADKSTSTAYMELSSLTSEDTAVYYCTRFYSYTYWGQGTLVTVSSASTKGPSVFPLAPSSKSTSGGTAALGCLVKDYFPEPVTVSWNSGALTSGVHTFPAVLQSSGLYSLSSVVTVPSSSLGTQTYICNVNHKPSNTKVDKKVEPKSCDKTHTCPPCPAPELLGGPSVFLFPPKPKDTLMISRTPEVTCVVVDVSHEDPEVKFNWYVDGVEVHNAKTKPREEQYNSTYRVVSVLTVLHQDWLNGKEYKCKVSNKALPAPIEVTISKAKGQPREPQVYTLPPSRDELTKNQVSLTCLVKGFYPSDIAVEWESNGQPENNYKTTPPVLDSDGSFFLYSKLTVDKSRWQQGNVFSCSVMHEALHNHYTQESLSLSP
light: DIVMTQSPLSLPVTPGEPASISCQASESLVHSNRNTYLHWYLQKPGQSPQLLIYKVSNRFSGVPDRFSGSGSGTDFTLKISRVEAEDVGVYYCSQNTHVPPTFGQGTKVEIERTVAAPSVFIFPPSDEQLKSGTASVVCLLNNFYPREAKVQWKVDNALQSGNSQESVTEQDSKDSTYSLSSTLTLSKADYEKHKVYACEVTHQGLSSPVTKSFNRGEC
notes: also called Ho Ab K334_03V
B3: GpH7-B3 variant K334_04F/GpL16-k0 (antibody, human IgG1, kappa)
heavy: not shown
light: DIVMTQSPLSLPVTPGEPASISCQASESLVHSNRNTYLHWYLQKPGQSPQLLIYKVSNRFSGVPDRFSGSGSGTDFTLKISRVEAEDVGVYYCSQNTHVPPTFGQGTKVEIERTVAAPSVFIFPPSDEQLKSGTASVVCLLNNFYPREAKVQWKVDNALQSGNSQESVTEQDSKDSTYSLSSTLTLSKADYEKHKVYACEVTHQGLSSPVTKSFNRGEC
notes: also called Ho Ab K334_04F
B4: GpH7-B3 variant K326_10E/GpL16-k0 (antibody, human IgG1, kappa)
heavy: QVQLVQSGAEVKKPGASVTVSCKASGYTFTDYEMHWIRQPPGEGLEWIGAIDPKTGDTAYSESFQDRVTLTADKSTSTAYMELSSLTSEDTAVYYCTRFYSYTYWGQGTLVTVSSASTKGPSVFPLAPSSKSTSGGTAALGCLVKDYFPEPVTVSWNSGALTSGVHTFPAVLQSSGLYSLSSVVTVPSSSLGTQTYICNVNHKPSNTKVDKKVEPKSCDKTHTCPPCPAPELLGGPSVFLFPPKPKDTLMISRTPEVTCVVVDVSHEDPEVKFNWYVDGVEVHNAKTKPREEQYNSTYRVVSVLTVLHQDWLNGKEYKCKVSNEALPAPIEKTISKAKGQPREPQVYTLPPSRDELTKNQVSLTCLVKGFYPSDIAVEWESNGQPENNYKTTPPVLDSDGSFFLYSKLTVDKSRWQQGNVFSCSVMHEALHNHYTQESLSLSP
light: DIVMTQSPLSLPVTPGEPASISCQASESLVHSNRNTYLHWYLQKPGQSPQLLIYKVSNRFSGVPDRFSGSGSGTDFTLKISRVEAEDVGVYYCSQNTHVPPTFGQGTKVEIERTVAAPSVFIFPPSDEQLKSGTASVVCLLNNFYPREAKVQWKVDNALQSGNSQESVTEQDSKDSTYSLSSTLTLSKADYEKHKVYACEVTHQGLSSPVTKSFNRGEC
notes: also called Ho Ab K326_10E
B5: GpH7-B3 variant K326_15Y/GpL16-k0 (antibody, human IgG1, kappa)
heavy: not shown
light: DIVMTQSPLSLPVTPGEPASISCQASESLVHSNRNTYLHWYLQKPGQSPQLLIYKVSNRFSGVPDRFSGSGSGTDFTLKISRVEAEDVGVYYCSQNTHVPPTFGQGTKVEIERTVAAPSVFIFPPSDEQLKSGTASVVCLLNNFYPREAKVQWKVDNALQSGNSQESVTEQDSKDSTYSLSSTLTLSKADYEKHKVYACEVTHQGLSSPVTKSFNRGEC
notes: also called Ho Ab K326_15Y
B6: GpH7-B3 variant K326_06M/GpL16-k0 (antibody, human IgG1, kappa)
heavy: not shown
light: DIVMTQSPLSLPVTPGEPASISCQASESLVHSNRNTYLHWYLQKPGQSPQLLIYKVSNRFSGVPDRFSGSGSGTDFTLKISRVEAEDVGVYYCSQNTHVPPTFGQGTKVEIERTVAAPSVFIFPPSDEQLKSGTASVVCLLNNFYPREAKVQWKVDNALQSGNSQESVTEQDSKDSTYSLSSTLTLSKADYEKHKVYACEVTHQGLSSPVTKSFNRGEC
notes: also called Ho Ab K326_06M
B7: GpH7-B3 variant K334_05P/GpL16-k0 (antibody, human IgG1, kappa)
heavy: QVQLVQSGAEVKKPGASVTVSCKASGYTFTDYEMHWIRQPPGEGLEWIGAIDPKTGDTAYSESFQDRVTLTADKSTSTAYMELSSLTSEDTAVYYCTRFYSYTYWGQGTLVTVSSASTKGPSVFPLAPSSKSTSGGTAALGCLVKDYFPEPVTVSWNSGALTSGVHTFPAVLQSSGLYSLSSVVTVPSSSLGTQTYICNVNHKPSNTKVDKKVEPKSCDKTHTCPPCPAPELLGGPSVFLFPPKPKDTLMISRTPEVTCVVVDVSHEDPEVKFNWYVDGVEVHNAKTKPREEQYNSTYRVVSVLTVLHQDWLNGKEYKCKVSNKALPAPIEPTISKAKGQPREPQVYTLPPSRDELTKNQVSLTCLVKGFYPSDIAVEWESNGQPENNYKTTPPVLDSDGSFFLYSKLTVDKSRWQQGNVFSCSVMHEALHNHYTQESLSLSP
light: DIVMTQSPLSLPVTPGEPASISCQASESLVHSNRNTYLHWYLQKPGQSPQLLIYKVSNRFSGVPDRFSGSGSGTDFTLKISRVEAEDVGVYYCSQNTHVPPTFGQGTKVEIERTVAAPSVFIFPPSDEQLKSGTASVVCLLNNFYPREAKVQWKVDNALQSGNSQESVTEQDSKDSTYSLSSTLTLSKADYEKHKVYACEVTHQGLSSPVTKSFNRGEC
notes: also called Ho Ab K334_05P
B8: GpH7-B3 variant K326_04F/GpL16-k0 (antibody, human IgG1, kappa)
heavy: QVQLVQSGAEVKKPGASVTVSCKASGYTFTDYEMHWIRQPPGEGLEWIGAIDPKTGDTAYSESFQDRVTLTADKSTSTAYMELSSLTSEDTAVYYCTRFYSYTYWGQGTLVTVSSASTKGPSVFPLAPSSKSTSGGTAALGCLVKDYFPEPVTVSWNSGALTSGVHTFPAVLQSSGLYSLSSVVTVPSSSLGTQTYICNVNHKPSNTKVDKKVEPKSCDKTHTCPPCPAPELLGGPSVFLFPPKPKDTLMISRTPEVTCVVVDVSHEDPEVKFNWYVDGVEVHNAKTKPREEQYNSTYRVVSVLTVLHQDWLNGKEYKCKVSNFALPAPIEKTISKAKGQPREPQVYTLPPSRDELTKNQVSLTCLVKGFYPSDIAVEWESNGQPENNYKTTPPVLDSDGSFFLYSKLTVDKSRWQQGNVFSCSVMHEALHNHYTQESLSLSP
light: DIVMTQSPLSLPVTPGEPASISCQASESLVHSNRNTYLHWYLQKPGQSPQLLIYKVSNRFSGVPDRFSGSGSGTDFTLKISRVEAEDVGVYYCSQNTHVPPTFGQGTKVEIERTVAAPSVFIFPPSDEQLKSGTASVVCLLNNFYPREAKVQWKVDNALQSGNSQESVTEQDSKDSTYSLSSTLTLSKADYEKHKVYACEVTHQGLSSPVTKSFNRGEC
notes: also called Ho Ab K326_04F
B9: GpH7-B3 variant K326_03V/GpL16-k0 (antibody, human IgG1, kappa)
heavy: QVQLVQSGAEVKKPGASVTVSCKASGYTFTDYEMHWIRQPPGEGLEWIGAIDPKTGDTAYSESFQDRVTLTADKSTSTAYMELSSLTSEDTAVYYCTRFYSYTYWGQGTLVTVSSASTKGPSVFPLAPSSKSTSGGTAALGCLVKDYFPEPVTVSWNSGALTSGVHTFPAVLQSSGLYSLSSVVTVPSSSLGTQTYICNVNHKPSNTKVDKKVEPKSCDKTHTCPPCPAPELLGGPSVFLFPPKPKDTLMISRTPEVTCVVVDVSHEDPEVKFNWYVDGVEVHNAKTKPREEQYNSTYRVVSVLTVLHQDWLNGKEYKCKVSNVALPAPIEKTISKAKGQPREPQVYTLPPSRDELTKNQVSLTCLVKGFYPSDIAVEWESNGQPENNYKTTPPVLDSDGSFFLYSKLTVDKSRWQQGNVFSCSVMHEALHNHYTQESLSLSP
light: DIVMTQSPLSLPVTPGEPASISCQASESLVHSNRNTYLHWYLQKPGQSPQLLIYKVSNRFSGVPDRFSGSGSGTDFTLKISRVEAEDVGVYYCSQNTHVPPTFGQGTKVEIERTVAAPSVFIFPPSDEQLKSGTASVVCLLNNFYPREAKVQWKVDNALQSGNSQESVTEQDSKDSTYSLSSTLTLSKADYEKHKVYACEVTHQGLSSPVTKSFNRGEC
notes: also called Ho Ab K326_03V
B10: GpH7-B3 variant I336_18N/GpL16-k0 (antibody, human IgG1, kappa)
heavy: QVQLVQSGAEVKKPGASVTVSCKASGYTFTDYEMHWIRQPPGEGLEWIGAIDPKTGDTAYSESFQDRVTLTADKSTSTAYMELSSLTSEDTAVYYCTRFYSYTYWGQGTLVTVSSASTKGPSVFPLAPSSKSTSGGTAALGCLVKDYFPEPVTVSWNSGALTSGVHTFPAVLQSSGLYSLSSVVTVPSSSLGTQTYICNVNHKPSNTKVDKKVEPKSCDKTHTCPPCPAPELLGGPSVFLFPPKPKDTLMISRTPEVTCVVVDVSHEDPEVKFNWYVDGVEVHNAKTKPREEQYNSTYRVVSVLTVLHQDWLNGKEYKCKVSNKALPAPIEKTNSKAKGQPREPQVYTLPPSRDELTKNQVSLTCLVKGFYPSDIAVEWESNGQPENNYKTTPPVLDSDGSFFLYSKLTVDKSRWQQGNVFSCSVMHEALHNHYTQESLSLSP
light: DIVMTQSPLSLPVTPGEPASISCQASESLVHSNRNTYLHWYLQKPGQSPQLLIYKVSNRFSGVPDRFSGSGSGTDFTLKISRVEAEDVGVYYCSQNTHVPPTFGQGTKVEIERTVAAPSVFIFPPSDEQLKSGTASVVCLLNNFYPREAKVQWKVDNALQSGNSQESVTEQDSKDSTYSLSSTLTLSKADYEKHKVYACEVTHQGLSSPVTKSFNRGEC
notes: also called Ho Ab I336_18N
B11: GpH7-B3 variant K326_09D/GpL16-k0 (antibody, human IgG1, kappa)
heavy: not shown
light: DIVMTQSPLSLPVTPGEPASISCQASESLVHSNRNTYLHWYLQKPGQSPQLLIYKVSNRFSGVPDRFSGSGSGTDFTLKISRVEAEDVGVYYCSQNTHVPPTFGQGTKVEIERTVAAPSVFIFPPSDEQLKSGTASVVCLLNNFYPREAKVQWKVDNALQSGNSQESVTEQDSKDSTYSLSSTLTLSKADYEKHKVYACEVTHQGLSSPVTKSFNRGEC
notes: also called Ho Ab K326_09D
B12: GpH7-B3 variant K334_02A/GpL16-k0 (antibody, human IgG1, kappa)
heavy: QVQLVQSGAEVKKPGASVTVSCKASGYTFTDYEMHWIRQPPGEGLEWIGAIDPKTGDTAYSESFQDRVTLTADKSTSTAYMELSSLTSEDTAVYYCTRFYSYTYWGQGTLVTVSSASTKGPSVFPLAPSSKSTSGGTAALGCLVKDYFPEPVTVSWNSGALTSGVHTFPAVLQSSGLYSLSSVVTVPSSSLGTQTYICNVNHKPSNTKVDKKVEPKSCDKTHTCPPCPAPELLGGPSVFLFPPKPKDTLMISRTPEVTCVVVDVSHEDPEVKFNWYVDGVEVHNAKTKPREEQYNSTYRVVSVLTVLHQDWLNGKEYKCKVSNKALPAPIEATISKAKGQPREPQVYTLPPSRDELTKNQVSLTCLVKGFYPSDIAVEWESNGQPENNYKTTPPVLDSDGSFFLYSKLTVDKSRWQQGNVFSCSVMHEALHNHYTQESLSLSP
light: DIVMTQSPLSLPVTPGEPASISCQASESLVHSNRNTYLHWYLQKPGQSPQLLIYKVSNRFSGVPDRFSGSGSGTDFTLKISRVEAEDVGVYYCSQNTHVPPTFGQGTKVEIERTVAAPSVFIFPPSDEQLKSGTASVVCLLNNFYPREAKVQWKVDNALQSGNSQESVTEQDSKDSTYSLSSTLTLSKADYEKHKVYACEVTHQGLSSPVTKSFNRGEC
notes: also called Ho Ab K334_02A
B13: GpH7-B3 variant K326_14T/GpL16-k0 (antibody, human IgG1, kappa)
heavy: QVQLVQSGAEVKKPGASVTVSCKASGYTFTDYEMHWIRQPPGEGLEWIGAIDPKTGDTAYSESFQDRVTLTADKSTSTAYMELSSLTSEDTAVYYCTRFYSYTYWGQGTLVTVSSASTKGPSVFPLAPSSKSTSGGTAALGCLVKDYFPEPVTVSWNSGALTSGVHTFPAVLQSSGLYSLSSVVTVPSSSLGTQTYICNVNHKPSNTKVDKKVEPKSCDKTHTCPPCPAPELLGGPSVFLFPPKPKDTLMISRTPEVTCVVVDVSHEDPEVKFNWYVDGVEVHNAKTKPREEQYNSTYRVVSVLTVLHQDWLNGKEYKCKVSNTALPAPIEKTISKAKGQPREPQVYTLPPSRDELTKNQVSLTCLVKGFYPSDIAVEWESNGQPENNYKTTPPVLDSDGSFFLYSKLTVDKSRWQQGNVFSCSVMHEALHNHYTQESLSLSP
light: DIVMTQSPLSLPVTPGEPASISCQASESLVHSNRNTYLHWYLQKPGQSPQLLIYKVSNRFSGVPDRFSGSGSGTDFTLKISRVEAEDVGVYYCSQNTHVPPTFGQGTKVEIERTVAAPSVFIFPPSDEQLKSGTASVVCLLNNFYPREAKVQWKVDNALQSGNSQESVTEQDSKDSTYSLSSTLTLSKADYEKHKVYACEVTHQGLSSPVTKSFNRGEC
notes: also called Ho Ab K326_14T
B14: GpH7-B3 variant K326_07I/GpL16-k0 (antibody, human IgG1, kappa)
heavy: not shown
light: DIVMTQSPLSLPVTPGEPASISCQASESLVHSNRNTYLHWYLQKPGQSPQLLIYKVSNRFSGVPDRFSGSGSGTDFTLKISRVEAEDVGVYYCSQNTHVPPTFGQGTKVEIERTVAAPSVFIFPPSDEQLKSGTASVVCLLNNFYPREAKVQWKVDNALQSGNSQESVTEQDSKDSTYSLSSTLTLSKADYEKHKVYACEVTHQGLSSPVTKSFNRGEC
notes: also called Ho Ab K326_07I
B15: GpH7-B3 variant K326_08L/GpL16-k0 (antibody, human IgG1, kappa)
heavy: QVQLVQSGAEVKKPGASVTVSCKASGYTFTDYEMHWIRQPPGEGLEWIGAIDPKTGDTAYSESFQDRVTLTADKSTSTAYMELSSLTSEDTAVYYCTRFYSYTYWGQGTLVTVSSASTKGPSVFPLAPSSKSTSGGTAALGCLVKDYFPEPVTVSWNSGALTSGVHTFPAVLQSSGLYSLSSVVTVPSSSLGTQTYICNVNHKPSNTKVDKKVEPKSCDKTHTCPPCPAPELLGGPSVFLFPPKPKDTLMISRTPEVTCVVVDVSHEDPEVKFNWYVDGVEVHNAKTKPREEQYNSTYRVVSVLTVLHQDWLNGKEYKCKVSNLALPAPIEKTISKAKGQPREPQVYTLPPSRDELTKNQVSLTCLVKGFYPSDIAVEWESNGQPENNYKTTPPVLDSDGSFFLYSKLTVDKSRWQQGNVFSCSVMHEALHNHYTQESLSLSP
light: DIVMTQSPLSLPVTPGEPASISCQASESLVHSNRNTYLHWYLQKPGQSPQLLIYKVSNRFSGVPDRFSGSGSGTDFTLKISRVEAEDVGVYYCSQNTHVPPTFGQGTKVEIERTVAAPSVFIFPPSDEQLKSGTASVVCLLNNFYPREAKVQWKVDNALQSGNSQESVTEQDSKDSTYSLSSTLTLSKADYEKHKVYACEVTHQGLSSPVTKSFNRGEC
notes: also called Ho Ab K326_08L
B16: GpH7-B3 variant K326_19Q/GpL16-k0 (antibody, human IgG1, kappa)
heavy: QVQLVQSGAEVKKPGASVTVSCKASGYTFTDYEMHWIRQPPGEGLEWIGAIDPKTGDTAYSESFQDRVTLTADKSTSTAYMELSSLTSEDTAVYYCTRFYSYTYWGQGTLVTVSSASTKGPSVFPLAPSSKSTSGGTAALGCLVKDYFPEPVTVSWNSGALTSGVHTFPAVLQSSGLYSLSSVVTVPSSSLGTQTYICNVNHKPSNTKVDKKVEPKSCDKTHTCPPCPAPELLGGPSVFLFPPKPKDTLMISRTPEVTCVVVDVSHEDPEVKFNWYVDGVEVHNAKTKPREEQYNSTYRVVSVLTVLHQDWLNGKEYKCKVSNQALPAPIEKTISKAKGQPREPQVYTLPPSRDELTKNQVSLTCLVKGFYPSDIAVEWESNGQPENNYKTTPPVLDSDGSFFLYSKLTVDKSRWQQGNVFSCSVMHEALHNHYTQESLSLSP
light: DIVMTQSPLSLPVTPGEPASISCQASESLVHSNRNTYLHWYLQKPGQSPQLLIYKVSNRFSGVPDRFSGSGSGTDFTLKISRVEAEDVGVYYCSQNTHVPPTFGQGTKVEIERTVAAPSVFIFPPSDEQLKSGTASVVCLLNNFYPREAKVQWKVDNALQSGNSQESVTEQDSKDSTYSLSSTLTLSKADYEKHKVYACEVTHQGLSSPVTKSFNRGEC
notes: also called Ho Ab K326_19Q

In the experiment the target is T1, FcγRIIIa extracellular domain with C-terminal His tag (human, UniProt P08637 17-208).
T1 construct: extracellular domain; also called FcgRIIIa; 3a; not shown: His tag attached to the C terminus
T1 sequence (P08637 17-208): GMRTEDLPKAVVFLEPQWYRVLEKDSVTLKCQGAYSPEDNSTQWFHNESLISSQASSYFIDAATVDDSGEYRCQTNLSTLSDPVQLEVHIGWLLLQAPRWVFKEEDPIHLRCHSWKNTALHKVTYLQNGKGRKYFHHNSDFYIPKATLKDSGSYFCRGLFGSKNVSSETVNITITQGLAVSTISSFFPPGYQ
The experiment in a line: SPR Biacore, captured antibody, FcγR analyte, relative binding. The procedure: Analysis of interaction between objective antibody and the FcγR was carried out using Biacore T100 (GE Healthcare). HBS-EP+ (GE Healthcare) was used as the running buffer, and the measurement temperature was set to 25° C. Chips produced by immobilizing the antigen peptide by the amine coupling method to a Series S Sencor Chip CM5 (GE Healthcare), or alternatively, chips produced by allowing preliminarily biotinylated antigen peptides to interact with and immobilize onto a Series S Sensor Chip SA (certified) (GE Healthcare) were used. Antibodies of interest were captured onto an antigen peptide-immobilized chip, and allowed to interact to each FcγR diluted with running buffer. To regenerate and repeatedly use the chip, the antibodies captured on the chip were washed off by reacting 10 mM glycine-HCl, pH 1.5.
On to B1, for which the Ho/Con_3a is 123 % of HoCon Ab GpH7-B3/GpL16-k0 (=100).

Consider B2, for which the Ho/Con_3a was 170 % of HoCon Ab GpH7-B3/GpL16-k0 (=100).

For the molecule B3, the Ho/Con_3a is 168 % of HoCon Ab GpH7-B3/GpL16-k0 (=100).

Take B4: the Ho/Con_3a is 157 % of HoCon Ab GpH7-B3/GpL16-k0 (=100).

Turning to B5, the Ho/Con_3a was 115 % of HoCon Ab GpH7-B3/GpL16-k0 (=100).

For B6, the Ho/Con_3a is 129 % of HoCon Ab GpH7-B3/GpL16-k0 (=100).

As to B7, the Ho/Con_3a is 165 % of HoCon Ab GpH7-B3/GpL16-k0 (=100).

For the molecule B8, the Ho/Con_3a is 103 % of HoCon Ab GpH7-B3/GpL16-k0 (=100).

Consider B9, for which the Ho/Con_3a was 137 % of HoCon Ab GpH7-B3/GpL16-k0 (=100).

In the case of B10, the Ho/Con_3a was 101 % of HoCon Ab GpH7-B3/GpL16-k0 (=100).

Take B11: the Ho/Con_3a was 163 % of HoCon Ab GpH7-B3/GpL16-k0 (=100).

As for B12, the Ho/Con_3a was 154 % of HoCon Ab GpH7-B3/GpL16-k0 (=100).

As to B13, the Ho/Con_3a is 147 % of HoCon Ab GpH7-B3/GpL16-k0 (=100).

B14: the Ho/Con_3a is 134 % of HoCon Ab GpH7-B3/GpL16-k0 (=100).

With B15, the Ho/Con_3a was 114 % of HoCon Ab GpH7-B3/GpL16-k0 (=100).

Regarding B16, the Ho/Con_3a is 118 % of HoCon Ab GpH7-B3/GpL16-k0 (=100).
